Key:
human CD3ε (human) = human CD3ε (human) (UniProt P07766); experiment: BIACORE and Scatchard; monovalent KD of anti-CD3 arm; legend prints 2.5 nM
[1] = biological target: truncated human FcRH5 (deletion of amino acids 1-744) with N-terminal gD tag (human) (UniProt Q96RD9); experiment: cell-based or functional assay
truncated human FcRH5 (deletion of amino acids 1-744) with N-terminal gD tag (human), sequence (Q96RD9 745-977, stated change not applied): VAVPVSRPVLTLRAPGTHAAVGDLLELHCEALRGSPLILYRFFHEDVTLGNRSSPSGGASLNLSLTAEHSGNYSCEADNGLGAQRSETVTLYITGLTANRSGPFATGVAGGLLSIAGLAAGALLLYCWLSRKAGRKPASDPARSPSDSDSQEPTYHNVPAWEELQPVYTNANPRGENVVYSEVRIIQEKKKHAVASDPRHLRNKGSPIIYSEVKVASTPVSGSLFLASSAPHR

human CD3ε (human), sequence (P07766 22-126): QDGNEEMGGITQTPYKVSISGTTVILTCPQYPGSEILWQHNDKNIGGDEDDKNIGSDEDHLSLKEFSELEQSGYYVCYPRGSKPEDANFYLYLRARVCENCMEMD

Kd (human CD3ε (human))	Substance	killing of cells expressing the truncated target, EC50 [1]
2 nM	anti-CD3 antibody huUCHT1.v9	
	anti-gD/UCHT1.v9 TDB (bispecific antibody)	0.19 nM
